Laboratory results published in PMC9443353.

Legend:
ZIKV NS1 [1] = target: T1, ZIKV NS1 (Zika virus, UniProt A0A024B7W1 795-1146); assay: ELONA; protein on Cu2+-coated plate; Hill slope fit; ELONA: borate buffer (60 mM in selection), 37 °C, 30 min, pH not stated; specificity: selection buffer, filtration, qPCR; FET: human serum as gate electrolyte; conditions: chain copies: 2; label: digoxigenin
ZIKV NS1 [2] = target: T1, ZIKV NS1; assay: graphene FET; human serum; Hill n = 0.8 ± 0.2; sequential NS1 addition; ELONA: borate buffer (60 mM in selection), 37 °C, 30 min, pH not stated; specificity: selection buffer, filtration, qPCR; FET: human serum as gate electrolyte; conditions: chain copies: 2
YFV NS1 = YFV NS1 (Yellow fever virus, UniProt P03314 779-1130)
DENV1 NS1 = DENV1 NS1 (Dengue virus serotype 1, UniProt P17763 776-1127); assay: filter binding with qPCR; 100 nM aptamer, 40 pmol protein; ELONA: borate buffer (60 mM in selection), 37 °C, 30 min, pH not stated; specificity: selection buffer, filtration, qPCR; FET: human serum as gate electrolyte; conditions: chain copies: 2
DENV3 NS1 = DENV3 NS1 (Dengue virus serotype 3, UniProt Q6YMS4 774-1125); assay: as above

B1: ZIKV60 (digoxigenin-labeled) (ssDNA)
DNA: CTTCTGCCCGCCTCCTTCCGGGCCCCGGGGGGTGTCCAGGCCCATGCGTCGTCCGCGGGGAGACGAGATAGGCGGACACT
Kd (ZIKV NS1 [1]): 2.28 ± 0.28 nM

B2: ZIKV60 (pyrene-modified) (ssDNA)
DNA: B1 DNA
modifications: pyrene
apparent K (half saturation) (ZIKV NS1 [2]): 1.4 ± 0.3 pg/mL

B3: ZIKV60 (ssDNA)
DNA: B1 DNA
binding signal (YFV NS1): 14.2 ratio ZIKV NS1/YFV NS1 bound
binding signal (DENV1 NS1): 14.2 ratio ZIKV NS1/DENV1 NS1 bound
binding signal (DENV3 NS1): 13.4 ratio ZIKV NS1/DENV3 NS1 bound
